{"source": "patent US20180333469A1", "about": "(PORTOLA PHARMACEUTICALS, published 2018)", "key": {"[1]": {"target": "T1, tissue factor pathway inhibitor (TFPI) (UniProt P10646 29-304, limits assumed)", "T1 sequence (looked up)": "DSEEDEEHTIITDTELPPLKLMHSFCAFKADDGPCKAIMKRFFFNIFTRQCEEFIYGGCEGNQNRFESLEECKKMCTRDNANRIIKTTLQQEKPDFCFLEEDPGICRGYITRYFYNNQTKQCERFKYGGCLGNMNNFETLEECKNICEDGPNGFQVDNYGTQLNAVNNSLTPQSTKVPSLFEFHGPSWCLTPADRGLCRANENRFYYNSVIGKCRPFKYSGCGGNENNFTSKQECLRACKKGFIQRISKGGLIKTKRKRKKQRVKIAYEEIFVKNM", "experiment": "cell-based or functional assay"}, "[2]": {"target": "T2, factor V (fV) (UniProt P12259 29-2224)", "T2 sequence (P12259 29-2224 limits assumed)": "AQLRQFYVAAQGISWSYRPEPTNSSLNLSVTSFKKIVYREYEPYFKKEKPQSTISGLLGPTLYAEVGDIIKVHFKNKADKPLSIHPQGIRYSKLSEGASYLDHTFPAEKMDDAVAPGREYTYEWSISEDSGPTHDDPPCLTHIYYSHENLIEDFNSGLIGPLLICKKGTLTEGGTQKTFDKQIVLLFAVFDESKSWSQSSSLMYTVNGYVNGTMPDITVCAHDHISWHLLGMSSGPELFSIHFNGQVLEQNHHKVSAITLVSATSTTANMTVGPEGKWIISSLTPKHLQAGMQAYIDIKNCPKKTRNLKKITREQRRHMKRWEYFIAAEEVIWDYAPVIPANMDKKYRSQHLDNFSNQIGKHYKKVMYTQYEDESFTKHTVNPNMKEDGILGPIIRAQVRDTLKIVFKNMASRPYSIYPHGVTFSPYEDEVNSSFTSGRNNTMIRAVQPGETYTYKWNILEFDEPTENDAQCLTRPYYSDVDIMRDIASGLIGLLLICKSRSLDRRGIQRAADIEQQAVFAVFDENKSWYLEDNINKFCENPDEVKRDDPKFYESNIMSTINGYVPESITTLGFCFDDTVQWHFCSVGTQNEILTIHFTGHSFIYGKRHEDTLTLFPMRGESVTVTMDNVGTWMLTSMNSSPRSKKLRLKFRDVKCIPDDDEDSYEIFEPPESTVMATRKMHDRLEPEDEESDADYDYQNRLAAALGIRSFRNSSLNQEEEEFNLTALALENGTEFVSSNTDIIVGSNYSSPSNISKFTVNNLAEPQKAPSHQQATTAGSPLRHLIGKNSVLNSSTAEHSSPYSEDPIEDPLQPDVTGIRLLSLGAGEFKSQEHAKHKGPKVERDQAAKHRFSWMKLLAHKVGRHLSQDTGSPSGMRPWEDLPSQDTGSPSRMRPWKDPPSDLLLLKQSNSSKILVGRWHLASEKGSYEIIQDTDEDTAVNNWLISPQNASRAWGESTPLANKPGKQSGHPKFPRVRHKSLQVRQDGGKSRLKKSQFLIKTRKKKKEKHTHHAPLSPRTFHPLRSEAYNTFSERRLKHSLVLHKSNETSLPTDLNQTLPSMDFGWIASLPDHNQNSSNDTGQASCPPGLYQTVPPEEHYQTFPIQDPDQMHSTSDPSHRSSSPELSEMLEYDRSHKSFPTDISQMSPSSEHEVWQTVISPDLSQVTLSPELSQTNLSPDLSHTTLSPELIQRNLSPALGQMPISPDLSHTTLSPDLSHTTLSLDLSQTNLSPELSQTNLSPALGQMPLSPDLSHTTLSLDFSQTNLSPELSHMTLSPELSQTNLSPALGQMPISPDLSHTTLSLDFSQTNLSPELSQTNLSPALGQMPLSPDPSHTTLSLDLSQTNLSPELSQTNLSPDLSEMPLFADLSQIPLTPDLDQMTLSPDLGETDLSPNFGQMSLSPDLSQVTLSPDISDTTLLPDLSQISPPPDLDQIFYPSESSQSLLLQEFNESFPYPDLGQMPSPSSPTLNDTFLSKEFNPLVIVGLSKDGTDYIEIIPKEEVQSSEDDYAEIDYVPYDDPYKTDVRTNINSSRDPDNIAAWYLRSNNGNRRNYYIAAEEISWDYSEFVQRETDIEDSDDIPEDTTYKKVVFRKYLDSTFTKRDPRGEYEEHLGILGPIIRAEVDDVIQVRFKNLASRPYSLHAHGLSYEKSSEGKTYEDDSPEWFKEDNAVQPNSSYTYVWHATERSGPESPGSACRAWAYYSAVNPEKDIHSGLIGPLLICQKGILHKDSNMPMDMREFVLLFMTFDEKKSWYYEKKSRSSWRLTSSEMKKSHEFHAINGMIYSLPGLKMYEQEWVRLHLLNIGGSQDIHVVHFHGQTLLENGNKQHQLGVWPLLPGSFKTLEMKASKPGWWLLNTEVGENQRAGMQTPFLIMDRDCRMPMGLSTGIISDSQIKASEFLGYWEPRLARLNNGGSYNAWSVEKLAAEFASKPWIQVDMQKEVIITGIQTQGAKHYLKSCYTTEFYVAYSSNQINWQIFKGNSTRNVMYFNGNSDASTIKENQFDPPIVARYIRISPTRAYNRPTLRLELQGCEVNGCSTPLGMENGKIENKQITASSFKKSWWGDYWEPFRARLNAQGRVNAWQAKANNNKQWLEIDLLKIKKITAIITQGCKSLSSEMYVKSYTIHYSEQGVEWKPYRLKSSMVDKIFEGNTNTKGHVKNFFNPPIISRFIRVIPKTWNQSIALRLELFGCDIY", "experiment": "SPR, Biacore 3000, CM-5 chip (Prep 1)", "experimental": "(§1) A few major plasma proteins, including tissue factor pathway inhibitor (TFPI), antithrombin III (ATIII), α-2-macroglobulin, α-1-antitrypsin, factor VII (fVII), factor X (fX), prothrombin, and factor V (fV), were tested for their binding affinity to a wild-type factor Xa (fXa) and two individual preparations (Prep 1 and Prep 2) of the fXa derivative (SEQ ID NO: 3). The binding experiment was conducted with a Biacore® 3000 with the fXa derivative immobilized on a CM-5 sensor chip according to manufacturer's instruction."}, "[3]": {"target": "T3, α-2-macroglobulin (UniProt P01023 24-1474)", "T3 sequence (looked up)": "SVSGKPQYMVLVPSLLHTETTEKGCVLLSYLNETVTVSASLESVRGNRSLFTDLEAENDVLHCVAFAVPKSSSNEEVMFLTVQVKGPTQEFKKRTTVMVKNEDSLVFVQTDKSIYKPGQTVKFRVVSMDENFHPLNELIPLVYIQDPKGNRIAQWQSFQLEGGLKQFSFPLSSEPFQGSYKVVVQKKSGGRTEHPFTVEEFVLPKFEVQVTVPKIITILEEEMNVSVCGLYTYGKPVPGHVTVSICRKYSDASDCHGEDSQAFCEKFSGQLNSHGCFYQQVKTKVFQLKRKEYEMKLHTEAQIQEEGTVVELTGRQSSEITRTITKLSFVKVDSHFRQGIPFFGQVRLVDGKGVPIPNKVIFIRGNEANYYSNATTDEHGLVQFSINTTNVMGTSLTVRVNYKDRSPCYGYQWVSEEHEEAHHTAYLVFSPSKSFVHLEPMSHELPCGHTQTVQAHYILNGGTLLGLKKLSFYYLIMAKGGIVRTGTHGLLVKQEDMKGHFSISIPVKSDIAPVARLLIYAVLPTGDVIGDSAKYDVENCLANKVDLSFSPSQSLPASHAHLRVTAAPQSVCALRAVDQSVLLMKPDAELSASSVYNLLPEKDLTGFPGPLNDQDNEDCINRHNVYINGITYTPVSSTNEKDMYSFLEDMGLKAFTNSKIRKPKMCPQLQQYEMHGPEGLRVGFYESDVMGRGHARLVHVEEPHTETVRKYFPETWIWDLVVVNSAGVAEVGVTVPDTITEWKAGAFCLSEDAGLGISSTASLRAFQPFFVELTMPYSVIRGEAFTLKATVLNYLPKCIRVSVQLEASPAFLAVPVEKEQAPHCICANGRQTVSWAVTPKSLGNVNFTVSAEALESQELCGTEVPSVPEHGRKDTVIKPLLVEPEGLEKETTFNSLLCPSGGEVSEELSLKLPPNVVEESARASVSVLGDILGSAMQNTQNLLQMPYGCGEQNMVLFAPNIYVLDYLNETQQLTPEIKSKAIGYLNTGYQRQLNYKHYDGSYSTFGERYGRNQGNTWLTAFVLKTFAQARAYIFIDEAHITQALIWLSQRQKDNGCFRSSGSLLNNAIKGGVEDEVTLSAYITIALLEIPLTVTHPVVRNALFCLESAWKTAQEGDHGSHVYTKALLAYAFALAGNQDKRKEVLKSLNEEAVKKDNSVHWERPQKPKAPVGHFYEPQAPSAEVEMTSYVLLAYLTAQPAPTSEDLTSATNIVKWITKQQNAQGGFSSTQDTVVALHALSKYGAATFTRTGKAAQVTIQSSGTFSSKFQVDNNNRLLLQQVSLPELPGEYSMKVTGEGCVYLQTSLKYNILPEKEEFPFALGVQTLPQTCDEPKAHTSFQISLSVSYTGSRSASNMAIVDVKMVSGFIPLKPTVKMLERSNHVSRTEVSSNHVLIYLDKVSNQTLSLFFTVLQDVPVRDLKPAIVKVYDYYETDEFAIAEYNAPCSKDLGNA", "experiment": "SPR, Biacore 3000, CM-5 chip (Prep 1)", "experimental": "as §1"}, "[4]": {"target": "T4, α-1-antitrypsin (UniProt P01009 25-418)", "T4 sequence (P01009 25-418 limits assumed)": "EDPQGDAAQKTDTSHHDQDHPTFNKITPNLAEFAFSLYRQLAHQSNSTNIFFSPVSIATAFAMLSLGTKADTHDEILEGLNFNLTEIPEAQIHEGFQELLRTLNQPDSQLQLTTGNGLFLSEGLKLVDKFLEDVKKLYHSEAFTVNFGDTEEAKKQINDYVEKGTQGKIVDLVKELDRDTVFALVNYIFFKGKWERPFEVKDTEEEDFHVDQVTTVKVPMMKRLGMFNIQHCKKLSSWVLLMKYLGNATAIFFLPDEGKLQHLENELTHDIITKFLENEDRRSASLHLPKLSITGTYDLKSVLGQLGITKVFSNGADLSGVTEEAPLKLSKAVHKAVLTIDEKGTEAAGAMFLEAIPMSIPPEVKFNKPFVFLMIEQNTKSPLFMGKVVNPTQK", "experiment": "SPR, Biacore 3000, CM-5 chip (Prep 1)", "experimental": "as §1"}, "[5]": {"target": "T5, factor X (fX) (UniProt P00742 41-488)", "experiment": "SPR, Biacore 3000, CM-5 chip (Prep 1)", "experimental": "as §1"}, "[6]": {"target": "T6, prothrombin (UniProt P00734 44-622)", "experiment": "SPR, Biacore 3000, CM-5 chip (Prep 1)", "experimental": "as §1"}, "[7]": {"target": "T7, factor VII (fVII) (UniProt P08709 61-466)", "T7 sequence (looked up)": "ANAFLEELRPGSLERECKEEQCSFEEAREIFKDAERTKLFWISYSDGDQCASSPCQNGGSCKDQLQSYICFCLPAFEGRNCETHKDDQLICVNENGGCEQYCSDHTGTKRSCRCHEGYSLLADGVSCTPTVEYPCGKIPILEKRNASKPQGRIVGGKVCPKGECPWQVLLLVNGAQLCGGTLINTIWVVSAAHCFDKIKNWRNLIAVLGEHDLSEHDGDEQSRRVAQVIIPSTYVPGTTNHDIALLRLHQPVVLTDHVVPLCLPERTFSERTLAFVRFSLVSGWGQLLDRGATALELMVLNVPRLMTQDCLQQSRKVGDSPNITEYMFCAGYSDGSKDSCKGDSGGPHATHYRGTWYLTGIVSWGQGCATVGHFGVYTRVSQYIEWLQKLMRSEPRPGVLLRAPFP", "experiment": "SPR, Biacore 3000, fXa derivative immobilized on CM-5 chip", "experimental": "as §1"}, "[8]": {"target": "T1, tissue factor pathway inhibitor (TFPI)", "experiment": "Kd of fXa derivative-TFPI over Ki of TFPI-fXa, fXa chromogenic assay (FIG. 1C)"}, "[9]": {"target": "T1, tissue factor pathway inhibitor (TFPI)", "experiment": "Kd of fXa derivative-TFPI over Ki of TFPI-fXa, fXa chromogenic assay (FIG. 1D)", "experimental": "The binding kinetics were determined using three different concentrations of the fXa derivative (0, 1 nM, and 5 nM) and escalating doses of TFPI, up to about 12 nM. fXa chromogenic activity was measured following a 2 hour incubation of fXa (1 nM). Residual fXa activity was measured by cleavage of the peptidyl substrate Spectrozyme-fXa (100 μM)."}, "[10]": {"target": "T1, tissue factor pathway inhibitor (TFPI)", "experiment": "competition in the fXa chromogenic activity assay: SEQ ID NO: 3 competes with fXa (0.5 nM) for TFPI (1.0 nM)"}, "[11]": {"target": "T1, tissue factor pathway inhibitor (TFPI)", "experiment": "competition in the fXa chromogenic activity assay: SEQ ID NO: 3 competes with fXa (1.0 nM) for TFPI (1.0 nM)"}, "[12]": {"target": "T2, factor V (fV)", "experiment": "SPR, Biacore 3000, CM-5 chip", "experimental": "as §1"}, "[13]": {"target": "antithrombin III (ATIII) (UniProt P01008 33-464)", "sequence (P01008 33-464 limits assumed)": "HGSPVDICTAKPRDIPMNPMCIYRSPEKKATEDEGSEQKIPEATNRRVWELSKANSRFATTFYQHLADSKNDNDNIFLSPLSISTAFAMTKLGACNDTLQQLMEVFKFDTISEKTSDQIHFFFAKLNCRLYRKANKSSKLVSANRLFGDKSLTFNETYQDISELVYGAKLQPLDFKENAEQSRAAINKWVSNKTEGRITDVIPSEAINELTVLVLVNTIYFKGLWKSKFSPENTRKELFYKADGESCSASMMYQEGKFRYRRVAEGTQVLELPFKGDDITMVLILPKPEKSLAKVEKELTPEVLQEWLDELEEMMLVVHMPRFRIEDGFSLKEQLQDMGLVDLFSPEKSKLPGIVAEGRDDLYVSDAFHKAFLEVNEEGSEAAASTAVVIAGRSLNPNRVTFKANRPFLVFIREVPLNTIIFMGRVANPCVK", "experiment": "SPR, Biacore 3000, CM-5 chip", "experimental": "as §1"}, "[14]": {"target": "T3, α-2-macroglobulin", "experiment": "SPR, Biacore 3000, CM-5 chip", "experimental": "as §1"}, "[15]": {"target": "T4, α-1-antitrypsin", "experiment": "SPR, Biacore 3000, CM-5 chip", "experimental": "as §1"}, "[16]": {"target": "T7, factor VII (fVII)", "experiment": "SPR, Biacore 3000, CM-5 chip", "experimental": "as §1"}, "[17]": {"target": "T5, factor X (fX)", "experiment": "SPR, Biacore 3000, CM-5 chip", "experimental": "as §1"}, "[18]": {"target": "T6, prothrombin", "experiment": "SPR, Biacore 3000, CM-5 chip", "experimental": "as §1"}}}
{"binder": "fXa derivative (SEQ ID NO: 3) (other, Prep 1 and Prep 2 are two preparations of the same molecule; also called fXa derivative Prep 1; fXa derivative Prep 2) light: ANSFLFWNKYKDGDQCETSPCQNQGKCKDGLGEYTCTCLEGFEGKNCELFTRKLCSLDNGDCDQFCHEEQNSVVCSCARGYTLADNGKACIPTGPYPCGKQTLER heavy: IVGGQECKDGECPWQALLINEENEGFCGGTILSEFYILTAAHCLYQAKRFKVRVGDRNTEQEEGGEAVHEVEVVIKHNRFTKETYDFDIAVLRLKTPITFRMNVAPACLPERDWAESTLMTQKTGIVSGFGRTHEKGRQSTRLKMLEVPYVDRNSCKLSSSFIITQNMFCAGYDTKQEDACQGDAGGPHVTRFKDTYFVTGIVSWGEGCARKGKYGIYTKVTAFLKWIDRSMKTRGLPKAKSHAPEVITSSPLK", "values": [{"measurement": "EC50 (read off the curve): fXa formed after 15 min by fVIIa/TF with 2.4 nM TFPI", "setting": "[1]", "result": "~5", "unit": "nM"}, {"measurement": "binding result", "setting": "[2]", "result": "no binding"}, {"measurement": "binding result", "setting": "[3]", "result": "no binding"}, {"measurement": "binding result", "setting": "[4]", "result": "no binding"}, {"measurement": "binding result", "setting": "[5]", "result": "no binding"}, {"measurement": "binding result", "setting": "[6]", "result": "no binding"}, {"measurement": "Kd", "setting": "[7]", "result": 2780, "unit": "nM"}, {"measurement": "Ratio (Kd/Ki)", "setting": "[8]", "result": 2.69}, {"measurement": "Ratio (Kd/Ki)", "setting": "[9]", "result": 4.97}, {"measurement": "EC50 (read off the curve)", "setting": "[10]", "result": "~2", "unit": "nM"}, {"measurement": "EC50 (read off the curve)", "setting": "[11]", "result": "~2", "unit": "nM"}]}
{"binder": "wild-type factor Xa (fXa) (enzyme, 11 gamma-carboxyglutamic acid residues (Gla) in the Gla domain, residues 1-45 of SEQ ID NO. 1) light: ANSFLEEMKKGHLERECMEETCSYEEAREVFEDSDKTNEFWNKYKDGDQCETSPCQNQGKCKDGLGEYTCTCLEGFEGKNCELFTRKLCSLDNGDCDQFCHEEQNSVVCSCARGYTLADNGKACIPTGPYPCGKQTLER heavy: IVGGQECKDGECPWQALLINEENEGFCGGTILSEFYILTAAHCLYQAKRFKVRVGDRNTEQEEGGEAVHEVEVVIKHNRFTKETYDFDIAVLRLKTPITFRMNVAPACLPERDWAESTLMTQKTGIVSGFGRTHEKGRQSTRLKMLEVPYVDRNSCKLSSSFIITQNMFCAGYDTKQEDACQGDSGGPHVTRFKDTYFVTGIVSWGEGCARKGKYGIYTKVTAFLKWIDRSMKTRGLPKAKSHAPEVITSSPLK", "values": [{"measurement": "binding result", "setting": "[12]", "result": "no binding"}, {"measurement": "Kd", "setting": "[13]", "result": "1060 to 13200", "unit": "nM"}, {"measurement": "binding result", "setting": "[14]", "result": "no binding"}, {"measurement": "binding result", "setting": "[15]", "result": "no binding"}, {"measurement": "Kd", "setting": "[16]", "result": 2970, "unit": "nM"}, {"measurement": "binding result", "setting": "[17]", "result": "no binding"}, {"measurement": "binding result", "setting": "[18]", "result": "no binding"}]}
